Measured values from patent US20240209078A1.
Where two headings read alike, the source gives them in different places. Each block holds one binder with its values, some of them ahead of it.

What was measured:
[1] = biological target: human MSLN (mesothelin) (human) (UniProt Q13421); experiment: cell-based or functional assay
[2] = biological target: human MSLN (mesothelin) (human) (UniProt Q13421); experiment: cell-based or functional assay; remark: listed apart in the source
human MSLN (human) [3] = biological target: human MSLN (human) (UniProt Q13421); experiment: cell-based or functional assay
human MSLN (human) [4] = biological target: human MSLN (human) (UniProt Q13421); experiment: cell-based affinity, flow cytometry on target-transfected CHO cells, nonlinear regression (one site - specific binding), mean of three measurements

B1: CH3 15-E11 CC×I2L×G4×scFc×G4×MS 15-B12 CC×I2L_GQ (SEQ ID NO 251) (bispecific antibody)
chain: QVQLVQSGAEVKKPGASVKVSCKASGYTFTNYWMNWVRQAPGQCLEWMGNIAYGVKGTNYNQKFQGRVTMTVDTSSSTAYMELSRLRSDDTAVYYCATRYFYVMDYWGQGTLVTVSSGGGGQGGGGQGGGGQDIQMTQSPSSLSASVGDRVTITCRASQDISNYLNWYQQKPGKVPKLLIYYTSRLHSGVPSRFSGSGSGTDFTLTISSLQPEDVATYYCVQYAQFPLTFGCGTKVEIKSGGGGQEVQLVESGGGLVQPGGSLKLSCAASGFTFNKYAMNWVRQAPGKGMEWVARIRSKYNNYATYYADAVKDRFTISRDDSKNTLYLQMNNLKTEDTAVYYCVRAGNFGSSYISYFAYWGQGTLVTVSSGGGGQGGGGQGGGGQQTVVTQEPSLTVSPGGTVTITCGSSTGAVTSGNYPNWIQKKPGQAPRGLIGGTKFLAPGTPARFSGSLEGGKAALTLSGVQPEDEAEYYCVLYYSNRWVFGSGTKLTVLGGGGCPPCPAPELLGGPSVFLFPPKPKDTLMISRTPEVTCVVVDVSHEEPEVKFNWYVDGVEVHNAKTKPCEEQYGSTYRCVSVLTVLHQDWLNGKEYKCKVSNKALPAPIEKTISKAKGQPREPQVYTLPPSREEMTKNQVSLTCLVKGFYPSDIAVEWESNGQPENNYKTTPPVLDSDGSFFLYSKLTVDKSRWQQGNVFSCSVMHEALHNHYTQKSLSLSPGKGGGGQGGGGQGGGGQGGGGQGGGGQGGGGQCPPCPAPELLGGPSVFLFPPKPKDTLMISRTPEVTCVVVDVSHEEPEVKFNWYVDGVEVHNAKTKPCEEQYGSTYRCVSVLTVLHQDWLNGKEYKCKVSNKALPAPIEKTISKAKGQPREPQVYTLPPSREEMTKNQVSLTCLVKGFYPSDIAVEWESNGQPENNYKTTPPVLDSDGSFFLYSKLTVDKSRWQQGNVFSCSVMHEALHNHYTQKSLSLSPGKGGGGQVQLQESGPGLVKPSETLSLTCTVSGGSISSSSYFWGWIRQPPGKCLEWIGNIYYSGSSNYNPSLKSRVTISVDTSKNQFSLKLSSVTAADTAVYYCARLPRGDRDAFDIWGQGTMVTVSSGGGGQGGGGQGGGGQDIVMTQSPSSLSASVGDRVTITCRASQGISNYLAWYQQKPGKVPKLLIYAASTLQSGVPSRFSGSGSGTDFTLTISSLQPEDFATYYCQQSYSTPFTFGCGTKVEIKSGGGGQEVQLVESGGGLVQPGGSLKLSCAASGFTFNKYAMNWVRQAPGKGMEWVARIRSKYNNYATYYADAVKDRFTISRDDSKNTLYLQMNNLKTEDTAVYYCVRAGNFGSSYISYFAYWGQGTLVTVSSGGGGQGGGGQGGGGQQTVVTQEPSLTVSPGGTVTITCGSSTGAVTSGNYPNWIQKKPGQAPRGLIGGTKFLAPGTPARFSGSLEGGKAALTLSGVQPEDEAEYYCVLYYSNRWVFGSGTKLTVL
cytotoxicity EC50, E:T ratio 1:1, GSU KO CDH3 cells [1]: 108 pM
cytotoxicity EC50, E:T ratio 1:2, GSU KO CDH3 cells [1]: 446 pM
cytotoxicity EC50, E:T ratio 10:1, GSU KO CDH3 cells [1]: 39.6 pM
cytotoxicity EC50, GSU KO CDH3 cells [1]: 512 pM
cytotoxicity EC50, HCT 116 KO CDH3 cells [1]: 51.8 pM
cytotoxicity EC50, GSU KO CDH3 cells [2]: 512 pM

B2: CH3 15-E11 VAG CC×I2L×G4×scFc×MS 15-B12 CC×I2L clipopt ID (SEQ ID NO 434) (bispecific antibody)
chain: QVQLVQSGAEVKKPGASVKVSCKASGYTFTNYWMNWVRQAPGQCLEWMGNIAYGVAGTNYNQKFQGRVTMTVDTSSSTAYMELSRLRSDDTAVYYCATRYFYVMDYWGQGTLVTVSSGGGGQGGGGQGGGGQDIQMTQSPSSLSASVGDRVTITCRASQDISNYLNWYQQKPGKVPKLLIYYTSRLHSGVPSRFSGSGSGTDFTLTISSLQPEDVATYYCVQYAQFPLTFGCGTKVEIKSGGGGQEVQLVESGGGLVQPGGSLKLSCAASGFTFNKYAMNWVRQAPGKGMEWVARIRSKYNNYATYYADAVKDRFTISRDDSKNTLYLQMNNLKTEDTAVYYCVRAGNFGSSYISYFAYWGQGTLVTVSSGGGGQGGGGQGGGGQQTVVTQEPSLTVSPGGTVTITCGSSTGAVTSGNYPNWIQKKPGQAPRGLIGGTKFLAPGTPARFSGSLEGGKAALTLSGVQPEDEAEYYCVLYYSNRWVFGSGTKLTVLGGGGCPPCPAPELLGGPSVFLFPPKPKDTLMISRTPEVTCVVVDVSHEEPEVKFNWYVDGVEVHNAKTKPCEEQYGSTYRCVSVLTVLHQDWLNGKEYKCKVSNKALPAPIEKTISKAKGQPREPQVYTLPPSREEMTKNQVSLTCLVKGFYPSDIAVEWESNGQPENNYKTTPPVLDSDGSFFLYSKLTVDKSRWQQGNVFSCSVMHEALHNHYTQKSLSLSPGKGGGGQGGGGQGGGGQGGGGQGGGGQGGGGQCPPCPAPELLGGPSVFLFPPKPKDTLMISRTPEVTCVVVDVSHEEPEVKFNWYVDGVEVHNAKTKPCEEQYGSTYRCVSVLTVLHQDWLNGKEYKCKVSNKALPAPIEKTISKAKGQPREPQVYTLPPSREEMTKNQVSLTCLVKGFYPSDIAVEWESNGQPENNYKTTPPVLDSDGSFFLYSKLTVDKSRWQQGNVFSCSVMHEALHNHYTQKSLSLSPGKGGGGQVQLQESGPGLVKPSETLSLTCTVSGGSISSSSYFWGWIRQPPGKCLEWIGNIYYSGSSNYNPSLKSRVTISVDTSKNQFSLKLSSVTAADTAVYYCARLPRGDRDAFDIWGQGTMVTVSSGGGGQGGGGQGGGGQDIVMTQSPSSLSASVGDRVTITCRASQGISNYLAWYQQKPGKVPKLLIYAASTLQSGVPSRFSGSGSGTDFTLTISSLQPEDFATYYCQQSYSTPFTFGCGTKVEIKSGGGGQEVQLVESGGGLVQPGGSLKLSCAASGFTFNKYAMNWVRQAPGKGMEWVARIRSKYNNYATYYADAVKDRFTISRDDSKNTLYLQMNNLKTEDTAVYYCVRAGNFGSSYISYFAYWGQGTLVTVSSGGGGQGGGGQGGGGQQTVVTQEPSLTVSPGGTVTITCGSSTGAVTSGNYPNWIQKKPGQAPRGLIGGTKFLAPGTPARFSGSLEGGKAALTLSGVQPEDEAEYYCVLYYSNRWVFGSGTKLTVL
cytotoxicity EC50, GSU KO CDH3 cells [1]: 75.2 pM
cytotoxicity EC50, HCT 116 KO CDH3 cells [1]: 5.9 pM

fold gap of column 6 (HCT 116 KO CDH3 by Table 46) against double positive cells (human MSLN (human) [3]): 727 fold
Kd (human MSLN (human) [4]): 33800 pM
B3: CH3 15-E11 CC × I2L × G4 × scFc × G4 × MS 15-B12 CC × I2L_GQ (bispecific antibody)
chain: QVQLVQSGAEVKKPGASVKVSCKASGYTFTNYWMNWVRQAPGQCLEWMGNIAYGVKGTNYNQKFQGRVTMTVDTSSSTAYMELSRLRSDDTAVYYCATRYFYVMDYWGQGTLVTVSSGGGGQGGGGQGGGGQDIQMTQSPSSLSASVGDRVTITCRASQDISNYLNWYQQKPGKVPKLLIYYTSRLHSGVPSRFSGSGSGTDFTLTISSLQPEDVATYYCVQYAQFPLTFGCGTKVEIKSGGGGQEVQLVESGGGLVQPGGSLKLSCAASGFTFNKYAMNWVRQAPGKGMEWVARIRSKYNNYATYYADAVKDRFTISRDDSKNTLYLQMNNLKTEDTAVYYCVRAGNFGSSYISYFAYWGQGTLVTVSSGGGGQGGGGQGGGGQQTVVTQEPSLTVSPGGTVTITCGSSTGAVTSGNYPNWIQKKPGQAPRGLIGGTKFLAPGTPARFSGSLEGGKAALTLSGVQPEDEAEYYCVLYYSNRWVFGSGTKLTVLGGGGCPPCPAPELLGGPSVFLFPPKPKDTLMISRTPEVTCVVVDVSHEEPEVKFNWYVDGVEVHNAKTKPCEEQYGSTYRCVSVLTVLHQDWLNGKEYKCKVSNKALPAPIEKTISKAKGQPREPQVYTLPPSREEMTKNQVSLTCLVKGFYPSDIAVEWESNGQPENNYKTTPPVLDSDGSFFLYSKLTVDKSRWQQGNVFSCSVMHEALHNHYTQKSLSLSPGKGGGGQGGGGQGGGGQGGGGQGGGGQGGGGQCPPCPAPELLGGPSVFLFPPKPKDTLMISRTPEVTCVVVDVSHEEPEVKFNWYVDGVEVHNAKTKPCEEQYGSTYRCVSVLTVLHQDWLNGKEYKCKVSNKALPAPIEKTISKAKGQPREPQVYTLPPSREEMTKNQVSLTCLVKGFYPSDIAVEWESNGQPENNYKTTPPVLDSDGSFFLYSKLTVDKSRWQQGNVFSCSVMHEALHNHYTQKSLSLSPGKGGGGQVQLQESGPGLVKPSETLSLTCTVSGGSISSSSYFWGWIRQPPGKCLEWIGNIYYSGSSNYNPSLKSRVTISVDTSKNQFSLKLSSVTAADTAVYYCARLPRGDRDAFDIWGQGTMVTVSSGGGGQGGGGQGGGGQDIVMTQSPSSLSASVGDRVTITCRASQGISNYLAWYQQKPGKVPKLLIYAASTLQSGVPSRFSGSGSGTDFTLTISSLQPEDFATYYCQQSYSTPFTFGCGTKVEIKSGGGGQEVQLVESGGGLVQPGGSLKLSCAASGFTFNKYAMNWVRQAPGKGMEWVARIRSKYNNYATYYADAVKDRFTISRDDSKNTLYLQMNNLKTEDTAVYYCVRAGNFGSSYISYFAYWGQGTLVTVSSGGGGQGGGGQGGGGQQTVVTQEPSLTVSPGGTVTITCGSSTGAVTSGNYPNWIQKKPGQAPRGLIGGTKFLAPGTPARFSGSLEGGKAALTLSGVQPEDEAEYYCVLYYSNRWVFGSGTKLTVL
EC50 (cytotoxicity) on double positive cells; column head printed 'EC50 CHO hu CDH3 (+) & MSLN (+)'; value is that of HCT 116 wt in Table 46 (human MSLN (human) [3]): 0.071 pM
EC50 (cytotoxicity); column head printed 'EC50 CHO hu CDH3 (+)', table title HCT 116; value is that of HCT 116 KO CDH3 in Table 46 (human MSLN (human) [3]): 51.8 pM
EC50 on HCT 116 KO CDH3 (cytotoxicity; cells CDH3-, MSLN+) (human MSLN (human) [3]): 51.8 pM
EC50 on HCT 116 wt (cytotoxicity; cells CDH3+, MSLN+) (human MSLN (human) [3]): 0.07 pM

Kd (human MSLN (human) [4]): 40000 pM
B4: CH3 15-E11_1_VAG_CC × I2L × G4 × scFc × G4 × MS 15-B12 CC × I2L clipopt_DI (bispecific antibody)
chain: QVQLVQSGAEVKKPGASVKVSCKASGYTFTNYWMNWVRQAPGQCLEWMGNIAYGVAGTNYNQKFQGRVTMTVDTSSSTAYMELSRLRSDDTAVYYCATRYFYVMDYWGQGTLVTVSSGGGGQGGGGQGGGGQDIQMTQSPSSLSASVGDRVTITCRASQDISNYLNWYQQKPGKVPKLLIYYTSRLHSGVPSRFSGSGSGTDFTLTISSLQPEDVATYYCVQYAQFPLTFGCGTKVEIKSGGGGQEVQLVESGGGLVQPGGSLKLSCAASGFTFNKYAMNWVRQAPGKGMEWVARIRSKYNNYATYYADAVKDRFTISRDDSKNTLYLQMNNLKTEDTAVYYCVRAGNFGSSYISYFAYWGQGTLVTVSSGGGGQGGGGQGGGGQQTVVTQEPSLTVSPGGTVTITCGSSTGAVTSGNYPNWIQKKPGQAPRGLIGGTKFLAPGTPARFSGSLEGGKAALTLSGVQPEDEAEYYCVLYYSNRWVFGSGTKLTVLGGGGCPPCPAPELLGGPSVFLFPPKPKDTLMISRTPEVTCVVVDVSHEEPEVKFNWYVDGVEVHNAKTKPCEEQYGSTYRCVSVLTVLHQDWLNGKEYKCKVSNKALPAPIEKTISKAKGQPREPQVYTLPPSREEMTKNQVSLTCLVKGFYPSDIAVEWESNGQPENNYKTTPPVLDSDGSFFLYSKLTVDKSRWQQGNVFSCSVMHEALHNHYTQKSLSLSPGKGGGGQGGGGQGGGGQGGGGQGGGGQGGGGQCPPCPAPELLGGPSVFLFPPKPKDTLMISRTPEVTCVVVDVSHEEPEVKFNWYVDGVEVHNAKTKPCEEQYGSTYRCVSVLTVLHQDWLNGKEYKCKVSNKALPAPIEKTISKAKGQPREPQVYTLPPSREEMTKNQVSLTCLVKGFYPSDIAVEWESNGQPENNYKTTPPVLDSDGSFFLYSKLTVDKSRWQQGNVFSCSVMHEALHNHYTQKSLSLSPGKGGGGQVQLQESGPGLVKPSETLSLTCTVSGGSISSSSYFWGWIRQPPGKCLEWIGNIYYSGSSNYNPSLKSRVTISVDTSKNQFSLKLSSVTAADTAVYYCARLPRGDRDAFDIWGQGTMVTVSSGGGGQGGGGQGGGGQDIVMTQSPSSLSASVGDRVTITCRASQGISNYLAWYQQKPGKVPKLLIYAASTLQSGVPSRFSGSGSGTDFTLTISSLQPEDFATYYCQQSYSTPFTFGCGTKVEIKSGGGGQEVQLVESGGGLVQPGGSLKLSCAASGFTFNKYAMNWVRQAPGKGMEWVARIRSKYNNYATYYADAVKDRFTISRDDSKNTLYLQMNNLKTEDTAVYYCVRAGNFGSSYISYFAYWGQGTLVTVSSGGGGQGGGGQGGGGQQTVVTQEPSLTVSPGGTVTITCGSSTGAVTSGNYPNWIQKKPGQAPRGLIGGTKFLAPGTPARFSGSLEGGKAALTLSGVQPEDEAEYYCVLYYSNRWVFGSGTKLTVL
